Source: the supplement of paper PMC9170038

Tested on: MS2 coat protein
Experiment: apparent KD of MS2 coat protein; designed switch direction (-1 OFF switch, 1 ON switch): -1; higher = weaker reporter binding
Outline: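 On Illumina chips, designed RNA switches with common flanks were made by stalled E. coli RNA polymerase. Titrations with SNAP-549-labelled MS2 coat protein, doubling from 0.7 or 1.5 nM to 3 µM, were done with no input, with 200 uM small-molecule ligand, or with an oligonucleotide input. Apparent KD is the median per design over clusters, from curve fits of normalised cluster fluorescence.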

[1] = input ligand: microRNA oligo, concentration not stated
[2] = Eterna round: R95, input ligand: microRNA oligo, concentration not stated
[3] = Eterna round: R95, input ligand: FMN 200 uM
[4] = Eterna round: R95, input ligand: none

Sequence | apparent KD of MS2 coat protein (input ligand: FMN 200 uM) | apparent KD of MS2 coat protein (input ligand: none) | apparent KD of MS2 coat protein [2] | other results
GGGUAAUUCGUGAGGAUAUCGCUAAGCACUUUGGCCGAGAAGGCACAUGAGGAUCACCCAUGUAAUACGGCACG [Eternabot (L1) Solution 92] (Eterna round: R97, puzzle: Brourd's mod of Exclusion 4) | 0.0709 µM | 0.0191 µM | – | –
GGGUAGUGAGGAUAUCGUUGUUAGGAGGAGUAGGUAGGAGGCGAGAAGGCACAUGAGGAUCACCCAUGUAUGAA [JR_Exclu4_Sub066] (Eterna round: R96, puzzle: Exclusion 4) | 0.0349 µM | 0.032 µM | – | apparent KD of MS2 coat protein [1]: 0.0262 µM
GGGUAGUGAGGAUAUCGUUGUUAGGAGGAGUAGGUAGGAGGCGAGAAGGCACAUGAGGAUCACCCAUGUAUGAA [JR_Exclu4_Sub066] (puzzle: Exclusion 4) | – | – | 0.0235 µM | –
GGGUGCAGGCUGAGGUCCUACAUGAGGAUCACCCAUGUGGUCCGGUGGCGUGGGUCGCCGGACUUGGCUCGUCUUGU [salish99_S_TOV1_R5_013] (Eterna round: R97, puzzle: Sensor, turn-off variant 1) | 0.0392 µM | 0.0458 µM | – | –
GGUACUAACACGAAAGUGUUAGUACAAUAAGCUUGUGAAACAUGAGGAUCACCCAUGUCCUCAUAAGCUCGUCUUAG [salish99_TOv2_r3_005] (puzzle: Sensor v3, turn-off variant 2) | – | – | 0.392 µM | apparent KD of MS2 coat protein [3]: 0.0134 µM; apparent KD of MS2 coat protein [4]: 0.0123 µM
GGUACUCAAAGAGUACCAAUACGAACAUGAGGAUCACCCAUGUAGGAUAUGCUACUCAAAGAGUAGCAGAAGGAUAUGAUCCCU [Far Half Aptamer v12] (Eterna round: R96, puzzle: Exclusion NG 3) | 0.211 µM | 0.126 µM | – | apparent KD of MS2 coat protein [1]: 0.0996 µM
GGUAGAGAGCAGGAUAUCUUGGGUAAGUAUCGUAGAGAAGGGCUCACAUGAGGAUCACCCAUGUGGUCCUAGAU [JL Dibiri mod 04] (puzzle: Exclusion 6) | – | – | 0.0118 µM | –
GGUAUACAUGAGGAUCACCCAUGUCAGGAUAUGUAUGCAUAUGCCGAAAGGCAUAUGCUCAGAAGGGACUAUAU [AK-MS2ROC-r4-exclusion1-4.0] (Eterna round: R97, puzzle: Exclusion 1) | 0.0424 µM | 0.032 µM | – | –
GGUCAGAUGGUAGGAUAUCCAUAUCGAGUGACUCUUUCAUAACAUGAGGAUCACCCAUGUCGGUGGGAGAAGGGCCGUACGGCG [salish99_ExNG02_R04_016] (Eterna round: R96, puzzle: Exclusion NG 2) | 0.0389 µM | 0.0366 µM | – | apparent KD of MS2 coat protein [1]: 0.0233 µM
GGUCAUCAAGUCAGGAUAUCGUCUAAUCAAUCAGGCGAGAAGGGACAUGAGGAUCACCCAUGUCGACUCAUCAG [Ex4 #6] (Eterna round: R97, puzzle: Brourd's mod of Exclusion 4) | 0.13 µM | 0.0335 µM | – | –
GGUCCACAUGAGGAUCACCCAUGUUAGGAUAUCUCCCGCCUCCUCACUGGAGACGGACAGAGAAGGAACAUCAA [Vetibele] (Eterna round: R96, puzzle: Exclusion 1) | 0.104 µM | 0.0243 µM | – | apparent KD of MS2 coat protein [1]: 0.0205 µM
GGUCCACAUGAGGAUCACCCAUGUUAGGAUAUCUCCCGCCUCCUCACUGGAGACGGACAGAGAAGGAACAUCAA [Vetibele] (puzzle: Exclusion 1) | – | – | 0.0237 µM | –
GGUCGACAUGAGGAUCACCCAUGUCAGGAUAUCGUCACUGGAGCUUCGGCUCCAGUGACGAGAAGGGAUAUAAU [E1/15-A1] (Eterna round: R97, puzzle: Exclusion 1) | 0.0246 µM | 0.0369 µM | – | –
GGUCUACAUGAGGAUCACCCAUGUCAGGAUAUCGUGUGUUUUUUUUCGGCCGCGCGUGCGAGAAGGGACGUCUU (puzzle: Exclusion 1) | – | – | 0.0166 µM | –
GGUGAGAGCAAGGAUAUGCAGAAGAGAGAAAGAGCAGAAGGUGCUACAUGAGGAUCACCCAUGUUGGAUGUGUU [JR_E6_Sub014] (puzzle: Exclusion 6) | – | – | 0.0356 µM | apparent KD of MS2 coat protein [3]: 0.0463 µM; apparent KD of MS2 coat protein [4]: 0.0393 µM
GGUGCGUAUGUGAGGAUAUGCUGGUCCUUGGAUCAGCAGAAGGCACAUGAGGAUCACCCAUGUGGUGUCGUACA [salish99_Bmod_Ex4_014] (puzzle: Brourd's mod of Exclusion 4) | – | – | 0.255 µM | –
GGUGCGUAUGUGAGGAUAUGCUGGUCCUUGGAUCGGCAGAAGGCACAUGAGGAUCACCCAUGUGGUGUCGUACC [salish99_Bmod_Ex4_023] (puzzle: Brourd's mod of Exclusion 4) | – | – | 0.165 µM | –
GGUGCGUUUGUGAGGAUAUGCUGGUCCUUGGAUCAGCAGAAGGCACAUGAGGAUCACCCAUGUGGUGUCCGUCC [salish99_Bmod_Ex4_039] (puzzle: Brourd's mod of Exclusion 4) | – | – | 0.18 µM | –
GGUGCGUUUGUGAGGAUAUGCUGGUCCUUGGCUCAGCAGAAGGCACAUGAGGAUCACCCAUGUGGUGUCGUACC [salish99_Bmod_Ex4_033] (puzzle: Brourd's mod of Exclusion 4) | – | – | 0.239 µM | –
GGUGCGUUUGUGAGGAUAUGCUGGUCCUUGGUUCGGCAGAAGGCACAUGAGGAUCACCCAUGUGGUGUCGUACC [salish99_Bmod_Ex4_043] (puzzle: Brourd's mod of Exclusion 4) | – | – | 0.0157 µM | –
GGUGGACAUGAGGAUCACCCAUGUGAGGAUAUCGGCCGGCUAGUGGCGGCUGGCUUCUCGAGAAGGCGCAUAGU [Exclusion 1 V77] (puzzle: Exclusion 1) | – | – | 0.0373 µM | –
GGUGGACAUGAGGAUCACCCAUGUGAGGAUAUCGGCCGGUUCGCGGUGGCUGGCGUCUCGAGAAGGCGCAUAGU [Exclusion 1 V71] (puzzle: Exclusion 1) | – | – | 0.0287 µM | –
GGUGGACAUGAGGAUCACCCAUGUGAGGAUAUCGGCUAUCUACUCGCUGACGGCUGCUCGAGAAGGCACAUUGU [Exclusion 1 V91] (puzzle: Exclusion 1) | – | – | 0.0546 µM | –
GGUGGACAUGAGGAUCACCCAUGUGAGGAUAUCGGCUAUCUACUCGCUGACGGUUGCUCGAGAAGGCACAUUGU [Exclusion 1 V92] (puzzle: Exclusion 1) | – | – | 0.0909 µM | –
GGUGGACAUGAGGAUCACCCAUGUGAGGAUAUCGGCUGGUACGUGUUGGCUGGCAUCUCGAGAAGGCACAUAGG [Exclusion 1 V60] (puzzle: Exclusion 1) | – | – | 0.102 µM | –
GGUGGACAUGAGGAUCACCCAUGUGAGGAUAUCGGCUGGUGCGUGGUGGCUGGCAUCUCGAGAAGGCACAUAGU [Exclusion 1 V67] (puzzle: Exclusion 1) | – | – | 0.0705 µM | –
